One protein from PMC10136361, “Inhibition Analysis and High-Resolution Crystal Structure of Mus musculus Glutathione Transferase P1-1” (Biomolecules, 2023) can be followed below.

The data set deals with the molecule itself. Nature of the data set: crystal structure; co-crystallised with 2.5 mM Nb-GSH, hanging drop vapor diffusion, 0.1 M Tris-HCl pH 8.0, PEG 6000 20% (w/v), 0.2 M calcium chloride; data to 1.28 Å at 100 K; two molecules in the asymmetric unit.

B1: Mus musculus glutathione transferase P1-1 (enzyme, UniProt P19157 1-210, looked up)
chain: MPPYTIVYFPVRGRCEAMRMLLADQGQSWKEEVVTIDTWMQGLLKPTCLYGQLPKFEDGDLTLYQSNAILRHLGRSLGLYGKNQREAAQMDMVNDGVEDLRGKYVTLIYTNYENGKNDYVKALPGHLKPFETLLSQNQGGKAFIVGDQISFADYNLLDLLLIHQVLAPGCLDNFPLLSAYVARLSARPKIKAFLSSPEHVNRPINGNGKQ
notes: Glutathione S-transferase P1, Mus musculus, cloned from cDNA by PCR after GenBank BC061109.1; also called MmGSTP1-1; GSTP1-1 from Mus musculus
Take B1: the binding result is listed as “binds”.
